# Data as given in patent US11306331B2, “Processes for the production of hydroxycinnamic acids using polypeptides having tyrosine ammonia lyase activity” (CysBio ApS, priority 2014, dated 2022).
# B1: Saccharothrix espanaensis SeSam8 (Protein GI 433607630), His-tagged (N-terminal tag SEQ ID NO: 11) (Saccharothrix espanaensis) (protein)
# chain: MTQVVERQADRLSSREYLARVVRSAGWDAGLTSCTDEEIVRMGASARTIEEYLKSDKPIYGLTQGFGPLVLFDADSELEQGGSLISHLGTGQGAPLAPEVSRLILWLRIQNMRKGYSAVSPVFWQKLADLWNKGFTPAIPRHGTVSASGDLQPLAHAALAFTGVGEAWTRDADGRWSTVPAVDALAALGAEPFDWPVREALAFVNGTGASLAVAVLNHRSALRLVRACAVLSARLATLLGANPEHYDVGHGVARGQVGQLTAAEWIRQGLPRGMVRDGSRPLQEPYSLRCAPQVLGAVLDQLDGAGDVLAREVDGCQDNPITYEGELLHGGNFHAMPVGFASDQIGLAMHMAAYLAERQLGLLVSPVTNGDLPPMLTPRAGRGAGLAGVQISATSFVSRIRQLVFPASLTTLPTNGWNQDHVPMALNGANSVFEALELGWLTVGSLAVGVAQLAAMTGHAAEGVWAELAGICPPLDADRPLGAEVRAARDLLSAHADQLLVDEADGKDFG
# B2: Herpetosiphon aurantiacus HaXAL1 tyrosine ammonia lyase (Protein GI 159898407), SEQ ID NO: 2, His-tagged (N-terminal tag SEQ ID NO: 11) (Herpetosiphon … (protein)
# chain: MSTTLILTGEGLGIDDVVRVARHQDRVELTTDPAILAQIEASCAYINQAVKEHQPVYGVTTGFGGMANVIISPEEAAELQNNAIWYHKTGAGKLLPFTDVRAAMLLRANSHMRGASGIRLEIIQRMVTFLNANVTPHVREFGSIGASGDLVPLISITGALLGTDQAFMVDFNGETLDCISALERLGLPRLRLQPKEGLAMMNGTSVMTGIAANCVHDARILLALALEAHALMIQGLQGTNQSFHPFIHRHKPHTGQVWAADHMLELLQGSQLSRNELDGSHDYRDGDLIQDRYSLRCLPQFLGPIIDGMAFISHHLRVEINSANDNPLIDTASAASYHGGNFLGQYIGVGMDQLRYYMGLMAKHLDVQIALLVSPQFNNGLPASLVGNIQRKVNMGLKGLQLTANSIMPILTFLGNSLADRFPTHAEQFNQNINSQGFGSANLARQTIQTLQQYIAITLMFGVQAVDLRTHKLAGHYNAAELLSPLTAKIYHAVRSIVKHPPSPERPYIWNDDEQVLEAHISALAHDIANDGSLVSAVEQTLSGLRSIILFR
# B3: Rhodobacter sphaeroides RsTAL (Protein GI 126464011), His-tagged (N-terminal tag SEQ ID NO: 11) (Cereibacter sphaeroides 2.4.1) (protein)
# chain: MLAMSPPKPAVELDRHIDLDEAHSVASGGARIVLAPPARDRCRASEARLGAVIREARHVYGLTTGFGPLANRLVSGENVRTLQANLVHHLASGVGPVLDWTTARAMVLARLVAIAQGASGASEGTIARLIDLLNSELAPAVPMRGTVGASGDLTPLAHMVLCLQGRGDFLDRDGTRLDGAEGLRRGRLQPLDLSHRDALALVNGTSAMTGIALVNAHACRHLGNWAVALTALLAECLGGRTEAWAAALSDLRPHPGQKDAAARLRARVDGSARVVRHVIAERRLGASDIGTEPEAGQDAYSLRCAPQVLGAGFDTLAWHDRVLTIELNAVTDNPVFPPDGSVPALHGGNFMGQHVALTSDALATAVTVLAGLAERQIARLTDERLNRGLPPFLHRGPAGLNSGFMGAQVTATALLAEMRATGPASIHSISTNAANQDVVSLGTIAARLCREKIDRWAEILAILALCLAQAAELRCGSGLDGVSPAGKKLVQALREQFPPLETDRPLGQEIAALATHLLQQSPV
# Legend:
# [1] = substrate: N[C@@H](Cc1ccc(O)cc1)C(=O)O; test: In vitro kinetics of purified His-tagged SeSam8 (tyrosine/phenylalanine ammonia lyase activity, absorbance at 315/295 nm); assay type: biochemical, Saccharothrix espanaensis; conditions: other: SeSam8, 30° C, 1.56 μM to 200 μM tyrosine or 193 μM to 25 mM phenylalanine, pH 7.5
# Excerpt: (§1) Four of the enzymes were further purified by His-tag purification as follows. A DNA linker (5′ phosphorylated oligonucleotides CBJP559 and CBJP560, Table 5) was inserted in place of the sequence between the NdeI and BgIII site in plasmid pCDFDuet-1. This would result in the addition of the amino acids MAHHHHHHENLYFQ (SEQ ID NO: 11) to the N-terminal end of the polypeptides. The resulting plasmid was amplified with primers CBJP575 and CBJP576 (table 5) and the genes were amplified and combined using the Gibson reaction (New England Biolabs). The PCR amplification used the same reverse primers as in example 1, but the forward primers matching the His-tag site of the linker (Table 5). Plasmids carrying the genes (e.g. FjXAL, FIG. 4) were transformed into electrocompetent E. coli BL21(DE3)pLysS cells (Life Technologies) and selected on LB plates containing 50 ug/mL streptomycin.
# (§2) Strains expressing His-tagged versions of the enzymes were grown in LB media overnight at 37° C. and diluted into fresh LB media with 1 mM IPTG and growth was propagated overnight (approximately 18 h) at 30° C. Cells were harvested by centrifugation at 8000 rpm for 8 minutes, and disrupted by shearing into a buffer (50 mM Tris-HCl, 10 mM imidazole, 500 mM NaCl, 10% glycerol, pH 7.5). The homogenate was clarified by centrifugation at 10000 g for 10 min at 4° C., and the supernatant was loaded onto Ni2+-NTA resin column on an Äkta Pure system connected to a F9-C fraction collector (GE). Finally the fractions containing the purified polypeptide was dialyzed overnight against a buffer containing 50 mM Tris-HCl pH 7.5, 150 mM NaCl and 10% glycerol, flash-frozen in liquid nitrogen and stored at −80° C.
# (§3) Enzymatic assays were performed in 200 μL volumes in wells in a UV transparent 96-well plate, by following the increase in absorbance at 315 nm (pHCA) or 295 nm (CA). […] The enzymatic activity was calculated as U/g, where U is defined as μmol substrate converted per minute.
# [2] = substrate: N[C@@H](Cc1ccccc1)C(=O)O; test: as above; assay type: biochemical, Saccharothrix espanaensis; conditions: other: SeSam8, 30° C, 1.56 μM to 200 μM tyrosine or 193 μM to 25 mM phenylalanine, pH 7.5
# Excerpt: as §1, §2, §3
# [3] = test system: Saccharomyces cerevisiae CEN.PK102-5B; test: Specific production of pHCA and CA by S. cerevisiae expressing TAL enzymes; assay type: cell-based; conditions: 72 h, 30° C., +/- standard deviation
# Excerpt: A number of the previously characterized enzymes were characterized when expressed in Saccharomyces cerevisiae. Genes encoding HaXAL1 and FjXAL were synthesized with codon optimization for S. cerevisiae available by GeneArt (Life Technologies), and were named HaXAL1 Sc and FjXALSc. Genes were amplified using the oligonucleotide (refer to specific name) shown in Table 6, and inserted by uracil-excision into the vector pCfB132 together with the PPGK1 promoter amplified by primers PPGK1_fw and PPGK1_rv (Jensen et al., 2014). The finished plasmids were transformed into Saccharomyces cerevisiae CEN.PK102-5B (MAT a ura3-52 his3Δ1 leu2-3/112 MAL2-8c SUC2) using a standard lithium acetate transformation protocol and selected for on synthetic drop-out media plates lacking uracil.
# Cells were grown in SC medium without uracil, and diluted into Delft medium or Feed-In-Time (FIT) medium (m2p-labs) supplemented with leucine and histidine. After 72 h of incubation at 30° C. with shaking, samples were taken for the analysis of optical density at 600 nm and for clarification of the supernatant, which was analyzed by HPLC as described in example 1. The specific production was calculated as micromolar (μM) concentration per unit of optical density of the culture at 600 nm and is shown in Table 4.
# [4] = test system: E. coli BL21(DE3)pLysS cells; test: Specific production of pHCA and CA by E. coli expressing TAL/PAL enzymes; assay type: cell-based, Escherichia coli; conditions: 24 h after supplementation, +/- standard deviation
# Protocol: Plasmids carrying the genes were transformed into electrocompetent E. coli BL21(DE3)pLysS cells (Life Technologies) and selected on LBplates containing 50 ug/mL streptomycin. The strains were grown in M9 minimal media containing glucose as a carbon source, and expression was induced by adding 1 mM IPTG at an optical density at 600 nm of 0.6. After three hours of growth at 30° C. the cultures were supplemented with 2 mM tyrosine, phenylalanine or histidine. After further 24 hours, samples were withdrawn for determination of the optical density at 600 nm and for the isolation of the supernatant.
# The concentration of pHCA and CA in the supernatant was quantified by high performance (HPLC) and compared to chemical standards. HPLC was done on a Thermo setup using a HS-F5 column and mobile phases: 5 mM ammonium formate pH 4.0 (A) and acetonitrile (B) at 1.5 mL min-1, using a gradient elution starting at 5% B. From 0.5 min after injection to 7 min, the fraction of B increased linearly from 5% to 60%, and between 9.5 min and 9.6 the fraction of B decreased back to 5%, and remaining there until 12m pHCA and CA were quantified by measuring absorbance at 333 nm and 277 nm, respectively. The production was tested without addition of precursors or the addition of either phenylalanine or tyrosine to the growth medium.
# The specific production was calculated as micromolar (μM) concentration per unit of optical density of the culture at 600 nm, and standard deviations were calculated based on triplicate experiments. HaXAL1, HaXAL2 and FjXAL are the most specific enzymes and those that reach the highest yields.
# [5] = test system: E. coli BL21(DE3)pLysS cells; test: Titers of hydroxycinnamic acids in supernatants of E. coli cultures expressing TAL homologs; assay type: cell-based, Escherichia coli; conditions: 16 hours, 37° C., duplicate
# Protocol: E. coli strains described in Example 1 were used. M9 medium with 0.2% glucose and 0.5 mM IPTG also containing either tyrosine (204 μM), L-dopa (194 μM) or 3-O-methyldopa (262 μM) was transferred as 3-mL aliquots into a 24-well deep-well plate (Enzyscreen). Aliquots were taken for HPLC before the wells were inoculated with 200 μL of overnight cultures of the strains. The plates were placed at 37° C. with shaking for 16 hours. Samples of the supernatant were withdrawn after two rounds of centrifugation. The samples were subjected to HPLC along with chemical standards as described in Example 1. p-coumaric acid, caffeic acid and ferulic acid was measured by absorbance at 333 nm. Tyrosine, L-dopa and 3-O-methyldopa were measured by fluorescence (excitation at 274 nm, emission at 303 nm).
# There was no measurable product in the medium before inoculation.
# [6] = substrate: N[C@@H](Cc1ccc(O)cc1)C(=O)O; test: In vitro kinetics of purified His-tagged HaXAL1 (tyrosine/phenylalanine ammonia lyase activity, absorbance at 315/295 nm); assay type: biochemical, Herpetosiphon aurantiacus; conditions: other: HaXAL1, 30° C, 1.56 μM to 200 μM tyrosine or 193 μM to 25 mM phenylalanine, pH 7.5
# Protocol: (§4) The tyrosine ammonia lyase activity may for instance be determined in accordance to the following method: Enzymatic assays are performed in 200 μL volumes in wells in a UV transparent 96-well plate, by following the increase in absorbance at 315 nm (pHCA) using spectrophotometry or HPLC with UV detection. The reaction mixtures contain 2 μg of purified protein and are initiated by adding 1 mM tyrosine or 6 mM after equilibration to 30° C. The enzymatic activity is calculated as U/g, where U is defined as μmol substrate converted per minute. Negative controls contain no purified protein. Kinetic constants Km and vmax are determined from assays containing 1.56 μM to 200 μM tyrosine. See also Kyndt et al. (2002).
# as §1, §2, §3
# [7] = substrate: N[C@@H](Cc1ccccc1)C(=O)O; test: as above; assay type: biochemical, Herpetosiphon aurantiacus; conditions: other: HaXAL1, 30° C, 1.56 μM to 200 μM tyrosine or 193 μM to 25 mM phenylalanine, pH 7.5
# Protocol: as §4, §1, §2, §3
# [8] = substrate: N[C@@H](Cc1ccc(O)cc1)C(=O)O; test: purified protein, by the assay type; conditions: other: RsTAL, 30° C, 1.56 μM to 200 μM tyrosine or 193 μM to 25 mM phenylalanine, pH 7.5
# Protocol: (§5) Enzymatic assays were performed in 200 μL volumes in wells in a UV transparent 96-well plate, by following the increase in absorbance at 315 nm (pHCA) or 295 nm (CA). The reaction mixtures contained 2 μg of purified protein and were initiated by adding 1 mM tyrosine or 6 mM after equilibration to 30° C. The enzymatic activity was calculated as U/g, where U is defined as μmol substrate converted per minute.
# [9] = substrate: N[C@@H](Cc1ccccc1)C(=O)O; test: purified protein, by the assay type; conditions: other: RsTAL, 30° C, 1.56 μM to 200 μM tyrosine or 193 μM to 25 mM phenylalanine, pH 7.5
# Protocol: as §5
molecule,measurement,setting,value
B1,Km,[1],4.8 µM
same,Km,[2],2200 µM
same,kcat,[2],0.00883 s⁻¹
same,kcat/Km,[2],4.03 M⁻¹ s⁻¹
B2,Specific production of CA,[3]; Delft + Tyr (10 mM),0 ± 0 μM OD600-1
same,Specific production of pHCA,[3]; Delft + Tyr (10 mM),110 ± 15 μM OD600-1
same,Specific production of CA,[3]; Delft medium,0 ± 0 μM OD600-1
same,Specific production of pHCA,[3]; Delft medium,31 ± 3.2 μM OD600-1
same,Specific production of CA,[3]; FIT + Tyr (10 mM),0 ± 0 μM OD600-1
same,Specific production of pHCA,[3]; FIT + Tyr (10 mM),120 ± 10 μM OD600-1
same,Specific production of CA,[3]; FIT medium,0 ± 0 μM OD600-1
same,Specific production of pHCA,[3]; FIT medium,140 ± 13 μM OD600-1
same,Specific production of CA,[4]; M9 + Phe (2 mM),1.1 ± 0.2 μM OD600-1
same,Specific production of pHCA,[4]; M9 + Phe (2 mM),36 ± 14 μM OD600-1
same,Specific production of CA,[4]; M9 + Tyr (2 mM),0 ± 0 μM OD600-1
same,Specific production of pHCA,[4]; M9 + Tyr (2 mM),130 ± 26 μM OD600-1
same,Titer of ferulic acid,[5]; M9 + 3-O-methyldopa (262 μM),0.6 ± 0.0 µM
same,Titer of caffeic acid,[5]; M9 + L-dopa (194 μM),6.9 ± 1.3 µM
same,Titer of p-coumaric acid,[5]; M9 + tyrosine (204 μM),81 ± 1.2 µM
same,Km,[6],16 µM
same,Km,[7],22 mM
same,kcat,[7],0.128 s⁻¹
same,kcat/Km,[7],6.1 M⁻¹ s⁻¹
B3,Km,[8],5.6 µM
same,Km,[9],2400 µM
same,kcat,[9],0.0597 s⁻¹
same,kcat/Km,[9],24.6 M⁻¹ s⁻¹
